Publication PMC12174348 (Nature Communications, 2025)

Molecular target: human NMDAR (GluN1 and GluN2B subunits) on HEK293 cells (Homo sapiens, UniProt Q05586;Q13224)
Test: cell-based or functional assay

- in vitro pathogenicity (NMDAR internalization) of 502 Ab, EC50; the sentence may also mean its binding: 0.021 µg/mL
B1: reference pathogenic anti-NMDAR autoantibody 502 Ab (antibody, V domains shown)
VH: QVQLQESGPGLVKPSQTLSLTCSVTGYSITSDYYWHWIRQPPGKGLEWIAYIRYDGRNDSNPSLKNRVTISRDTSKNQFSLKLSSVTAADTAVYYCAREDYASSSFDYWGQGTLVTVSS
VL: DIQMTQSPSSLSASVGDRVTITCRPSENIYSNLAWYQQKPGKAPKLLVYAATNLADGVPSRFSGSGSGTDYTLTISSLQPEDIATYYCQHFWDSPPTFGQGTKLEIK
